Source: patent US20070258954A1

Biological target: fluorogenic OmpT peptide substrate (FIG. 10)
Assay: cell-based or functional assay

OmpT protease of E. coli, expressed from multicopy plasmid pML19 in UT5600 cells (from UniProt P09169 21-317) (enzyme)
mean fluorescence intensity of cells by FACS after 10 min exposure to the substrate: 30 fold
